The values that follow come from paper PMC9126950.

The target in this experiment is VHH-72-C13 (llama). Put plainly: electrochemical titration (differential pulse voltammetry).

Where “and” joins values, the source holds several entries; their conditions need not be identical. Equal entries are not always repeated.

Chain of VHH-72-C13 (llama) (VHH, as listed by the source): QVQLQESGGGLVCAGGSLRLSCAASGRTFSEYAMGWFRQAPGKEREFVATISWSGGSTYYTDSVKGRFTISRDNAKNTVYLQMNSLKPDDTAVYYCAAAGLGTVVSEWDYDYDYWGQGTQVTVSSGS

For “SARS-CoV-2 spike receptor binding domain (RBD), recombinant (from UniProt P0DTC2 319-541) (domain or fragment)”, the half saturation point (Langmuir isotherm) is 3.7 nM and 7.5 nM.
